Test results from the supplement of paper PMC7125110.
± gives the standard error. This sample holds only a part of the variants without activity.

B1: glmS ribozyme (parent)
chain: AUAAAAGCGCCAGAACUACAGAAAUGUAGUUGACGAGGAGGAGGUUUAUCGAAUUUUCGGCGGAUGCCUCCAAA

Assays:
Conditions in all cases: with glucosamine-6-phosphate
glucosamine-6-phosphate [1] = variants of: B1; experiment: self-cleavage kobs at 40 uM GlcN6P; higher = faster cleavage; RNA array
How it was run: (§1)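 Weighted Michaelis–Menten fits across concentrations supplied kcat and KM, based on kobs from one- or two-exponential decay fits to normalised per-tile medians. The data came from barcoded ribozyme variants transcribed in situ by E. coli RNA polymerase on sequenced MiSeq chips and tracked at 37 °C by a hybridised Cy3 probe. Glucosamine-6-phosphate (40 μM to 10 mM) in HEPES/KCl/Mg(OAc)2 buffer was flowed in.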

glucosamine-6-phosphate [2] = variants of: B1; experiment: self-cleavage kobs at 160 uM GlcN6P; higher = faster cleavage; RNA array
How it was run: as §1

glucosamine-6-phosphate [3] = variants of: B1; experiment: self-cleavage kobs at 640 uM GlcN6P; higher = faster cleavage; RNA array
How it was run: as §1

glucosamine-6-phosphate [4] = variants of: B1; experiment: self-cleavage kobs at 10000 uM GlcN6P; higher = faster cleavage; RNA array
How it was run: as §1

glucosamine-6-phosphate [5] = variants of: B1; experiment: self-cleavage kobs at 2500 uM GlcN6P; higher = faster cleavage; RNA array
How it was run: as §1

| Variant | self-cleavage kobs at 40 uM GlcN6P (glucosamine-6-phosphate [1]) | self-cleavage kobs at 160 uM GlcN6P (glucosamine-6-phosphate [2]) | self-cleavage kobs at 640 uM GlcN6P (glucosamine-6-phosphate [3]) | self-cleavage kobs at 10000 uM GlcN6P (glucosamine-6-phosphate [4]) | self-cleavage kobs at 2500 uM GlcN6P (glucosamine-6-phosphate [5]) |
| --- | --- | --- | --- | --- | --- |
| AUAAAAGCGCCAGAACUACAGAAAUGUAGUUAACGAGGAGGAGGUUUAUCGAAUUUUCGGCAGAUGCCUCCAAA | < 1e-05 s⁻¹ | < 1e-05 s⁻¹ | < 1e-05 s⁻¹ | < 1e-05 s⁻¹ |  |
| AUAAAAGCGCCAGAACUACAGAAAUGUAGUGGACGAGGAGGCGGUUUAUCGAAUUUUCGGCGGAUGCCUCCAAA | < 1e-05 s⁻¹ | < 1e-05 s⁻¹ |  |  | < 1e-05 s⁻¹ |
| AUAAAAGCGCCAGAACUACAGAAAUGUAGUUAACGAGGAGGAGGUUUAUCGAAAUUUCGGGGGAUGCCUCCAAA | < 1e-05 s⁻¹ |  | < 1e-05 s⁻¹ | < 1e-05 s⁻¹ |  |
| AUAAAAGCGCCAGAACUACAGAAAUGUAGUGGACGAGGAGGAGGCUUAGCGAAUUUUCGGCGGAUGCCUCCAAA | < 1e-05 s⁻¹ |  | < 1e-05 s⁻¹ | < 1e-05 s⁻¹ |  |
| AUAAAAGCGCCAGAACUACAGAAAUGUAGUUAACGAGGAUGUGCUUUAUCGAAUUUUCGGCGGAUGGCUCCAAA | < 1e-05 s⁻¹ |  |  | < 1e-05 s⁻¹ |  |
| AUAAAAGCGCCAGAACUACAGAAAUGUAGUUAACGAGGAGGAGGUUAAUCGAAUUUUCGGCGGAUGCCUCCAAA | 0.000103 ± 2.6e-05 s⁻¹ | 8.74e-05 ± 1.8e-05 s⁻¹ |  | 0.00237 ± 0.00046 s⁻¹ | 0.000897 ± 0.00019 s⁻¹ |
| AUAAAAGCGCCAGAACUACAGAAAUGUAGUGGACGCGGAGGAGGUUUAUCGAAUUUUCGGUGGAUGCCUCCAAA | < 1e-05 s⁻¹ |  |  | < 1e-05 s⁻¹ |  |
| AUAAAAGCGCCAGAACUACAGAAAUGUAGUUAUCGAGGGGGAGGUUUAUCGAAUUUUCGGGGGCUGCAUCCAAA | < 1e-05 s⁻¹ |  |  | < 1e-05 s⁻¹ |  |
| AUAAAAGCGCCAGAACUACAGAAAUGUAGUGUACGAGGAGGAGGUUUAUCGAAUUUUCGGCGGAUGCCUCCAAA | 5.84e-05 ± 1e-05 s⁻¹ |  | 0.000363 ± 7.2e-05 s⁻¹ | 0.00232 ± 0.00036 s⁻¹ | 0.000925 ± 0.00026 s⁻¹ |
| AUAAAAGCGCCAGAACUACAGAAAUGUAGUUAACGAGGAGGAGGUUUAUCAAAUUUUCGGCGGAUGCCUCCAAA | < 1e-05 s⁻¹ | < 1e-05 s⁻¹ | < 1e-05 s⁻¹ | < 1e-05 s⁻¹ |  |
| AUAAAAGCGCCAGAACUACAGAAAUGUAGUGCACGAGUAGGAUGUUUAUCGAAUUUUCAGCGAAUGCCACCAAA | < 1e-05 s⁻¹ |  |  |  |  |
| AUAAAAGCGCCAGAACUACAGAAAUGUAGUUAACAAGGAGGAGGUUUAUCGAAUUUUCGGCGGAUGCCUCCAAA | < 1e-05 s⁻¹ | < 1e-05 s⁻¹ | < 1e-05 s⁻¹ | < 1e-05 s⁻¹ | < 1e-05 s⁻¹ |
| AUAAAAGCGCCAGAACUACAGAAAUGUAGUUAACGAGGAGGAGGUUUAUGGAAUUGUCGGCGGAUGCCUUCAAA | 0.000356 ± 7.7e-05 s⁻¹ |  |  | 0.00032 ± 7.2e-05 s⁻¹ |  |
| AUAAAAGCGCCAGAACUACAGAAAUGUAGUGGACGAGGAGGAGGUUUAUCGAAUUUUCGGCGGAUGCCUUCAAA | 0.000479 ± 7.2e-05 s⁻¹ | 0.00104 ± 0.0002 s⁻¹ | 0.0023 ± 0.00038 s⁻¹ | 0.0305 ± 0.0058 s⁻¹ | 0.0117 ± 0.0029 s⁻¹ |
| AUAAAAGCGCCAGAACUACAGAAAUGUAGUUCACGGGGAGGAGGUUUAUCGAAUUUUCGGCGGAUGCCUCCAAA | < 1e-05 s⁻¹ | < 1e-05 s⁻¹ | < 1e-05 s⁻¹ | < 1e-05 s⁻¹ | < 1e-05 s⁻¹ |
| AUAAAAGCGCCAGAACUACAGAAAUGUAGUGGACGAGGAGGUGGUUUAUUGAAUUUUCGGGGGAUGCCUCCAAA | < 1e-05 s⁻¹ |  |  | < 1e-05 s⁻¹ |  |
| AUAAAAGCGCCAGAACUACAGAAAUGUAGUGGACGAGGAGGAGGUUUAUGGAAUUUUCGGCGGAUGCCUUCAAA | 5.37e-05 ± 2.4e-05 s⁻¹ |  |  | 4.81e-05 ± 1.5e-05 s⁻¹ |  |
| AUAAAAGCGCCAGAACUACAGAAAUGUAGUGGACGAGGAGGAGGUUUAUCGAAUUUUCGGUGGAUGCCUCCAAA | < 1e-05 s⁻¹ | < 1e-05 s⁻¹ | < 1e-05 s⁻¹ |  | < 1e-05 s⁻¹ |
| AUAAAAGCGCCAGAACUACAGAAAUGUAGUGGACGAGGAGGAGGUUUAUCGAAUUUUCGGUGGAUGUCUCCAAA | < 1e-05 s⁻¹ |  | < 1e-05 s⁻¹ |  |  |
| AUAAAAGCGCCAGAACUACAGAAAUGUAGUUAACGAGGAGGAGGUUUAUGGAAUUUUCGACGGAUGCGUCCAAA | 6.94e-05 ± 1.7e-05 s⁻¹ |  |  | 5.25e-05 ± 1.1e-05 s⁻¹ |  |
| AUAAAAGCGCCAGAACUACAGAAAUGUAGUGGACGAGCAGGAGGUUUAUCGAAUUUUCGGCGGAUGCCUCCAAA | < 1e-05 s⁻¹ | < 1e-05 s⁻¹ | < 1e-05 s⁻¹ |  | < 1e-05 s⁻¹ |
| AUAAAAGCGCCAGAACUACAGAAAUGUAGUGGACGAGGGGGAGGUUUAUCGAGUUUUCGGCGGAUGCCUCCAAA | 0.000493 ± 0.00012 s⁻¹ |  | 0.00385 ± 0.0009 s⁻¹ |  | 0.0115 ± 0.0049 s⁻¹ |
| AUAAAAGCGCCAGAACUACAGAAAUGUAGUGGACCAGGAGGAGUUUUAUCGAAAUUUCGGCGGAUGCCUCCAAA | < 1e-05 s⁻¹ |  |  | < 1e-05 s⁻¹ | < 1e-05 s⁻¹ |
| AUAAAAGCGCCAGAACUACAGAAAUGUAGUGGACGAGGAGGAGGUUUAUCGAAUUGUCGGCGGAUGCCUCCAAA | 0.000123 ± 2.1e-05 s⁻¹ | 0.000145 ± 4e-05 s⁻¹ | 0.000347 ± 8.2e-05 s⁻¹ | 0.00342 ± 0.00086 s⁻¹ | 0.00132 ± 0.00034 s⁻¹ |
